The target of assay [1] is human CD3 on human T cells (human) (UniProt P07766). Kind of assay: flow cytometry competition on purified human T cells; competitor 2 ug/mL AF488-labelled SP34-2. A general note: Flow cytometry measures light scatter and fluorescence of single cells or particles in a stream.
The target is the same in assay [2]. Briefly: saturation binding on human pan T cells, flow cytometry (KdT).
Another assay concerns the target Human CD33-V-HSA (human). Briefly: SPRi off-rate screen (IBIS MX96).
In assay [3] the target is Human CD33 ECD-HSA (human). Briefly: SPRi off-rate screen (IBIS MX96).

Sequence of human CD3 on human T cells (human) (P07766 23-207 limits assumed): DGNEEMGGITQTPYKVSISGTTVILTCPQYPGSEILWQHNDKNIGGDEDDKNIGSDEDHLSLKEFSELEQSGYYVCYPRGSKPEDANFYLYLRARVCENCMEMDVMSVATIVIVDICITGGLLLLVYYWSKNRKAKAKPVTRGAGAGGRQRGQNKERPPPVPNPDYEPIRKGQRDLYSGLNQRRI

On to “SP34-2, commercial mouse anti-human CD3 antibody”, for which the IC50 (read off the curve) in assay [1] stood at 1 µg/mL. Moreover, the Kd (commonly the free concentration of one partner at which half of the binding sites on the other are occupied at equilibrium, for simple one-to-one binding) in assay [2] was 5.6 nM.

Consider WM53 (antibody), for which the koff (in general, the rate constant with which the complex falls apart) in the assay with Human CD33-V-HSA (human) was found to be 0.0378 s⁻¹; in assay [3], 0.00237 s⁻¹.

(Values after patent US20230322924A1.)
